The values below come from publication PMC10338078.

The test has as its target Drosophila Deltex WWE2 domain (residues 26-261; Dx1A*) (Drosophila) (UniProt Q23985). Briefly: AUC.
Chain of UniProt Q23985 (Q23985 26-261): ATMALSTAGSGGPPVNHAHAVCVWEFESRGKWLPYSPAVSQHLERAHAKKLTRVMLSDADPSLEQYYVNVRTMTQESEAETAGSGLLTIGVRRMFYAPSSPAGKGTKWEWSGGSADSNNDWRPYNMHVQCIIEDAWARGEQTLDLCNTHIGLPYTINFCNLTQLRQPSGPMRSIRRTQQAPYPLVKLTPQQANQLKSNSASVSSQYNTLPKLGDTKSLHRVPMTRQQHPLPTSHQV

For the substance “Drosophila Notch ANK domain (Nank1-7*) R2007A (from UniProt P07207 1901-2048) (domain or fragment)”, the weight-averaged sedimentation coefficient (sw) of a 45 μM 1:1 mixture turned out to be 3.51e-13 s.
